Data reported in patent US20250367288A1, “DELIVERY OF MULTI-CYTOKINE SIGNALS BY OVEREXPRESSION OF WILD-TYPE OR MUTANT SIGNAL TRANSDUCTION MOLECULES” (THE TRUSTEES OF THE UNIVERSITY OF PENNSYLVANIA, priority 2021, published 2025).

How the values were obtained:
[1] = target: thrombopoietin receptor (TPOR) (UniProt P40238); assay: cell-based or functional assay
T cells expressing TPOR = assay: Stimulation of T cells expressing TPOR for 7 days; cell number and percent transgenic cells by flow cytometry; type: cell-based, human; conditions: 0.1 μg/ml; for TPOR fraction after addition of agonist: enriched from 12.9% without addition
Procedure: (§1) FIG. 12: T cells transduced to express (i) the thrombopoietin receptor (TPOR) or (ii) the GCF receptor with a deletion at aa 715 (GCSFRd715) are active and can drive T cell proliferation via the non-canonical JAK2 pathway. T cells expressing GCSFRd715, TPOR, or the truncated NGFR as a control were stimulated for 7 days with IL-2/IL-7/IL-15 (all at 5 ng/ml; denoted as CK; positive control condition), 0.1 μg/ml recombinant thrombopoietin (TPO), 0.1 μg/ml TPO agonist eltrombopag (EP), or 0.1 μg/ml GCSF. Cell number (top) or percent transgenic cells (bottom) were quantified using flow cytometry at 7 days.
(§2) FIG. 13: Exemplary flow cytometry plots showing that exposure of transgenic cytokine receptor transduced cells to the cognate cytokine (i.e. GCSFRd715 to GCSF; TPOR to TPO or EP) leads to enrichment of CAR expressing cells at 7 days. Addition of GCSF enriched the GCSRFd715 transgenic cell fraction from 15.6% to 64.9% (top panel). Addition of TPO enriched the TPOR fraction from 12.9% to 82% and addition of EP enriched the TPOR fraction from 12.9% to 55.9% (bottom panel).
(§3) Healthy donor T cells were transduced to express (i) the thrombopoietin receptor (TPOR) or (ii) the GCF receptor with a deletion at aa 715 (GCSFRd715). T cells expressing GCSFRd715, TPOR, or the truncated NGFR as a control were stimulated for 7 days with IL-2/IL-7/IL-15 (all at 5 ng/ml; denoted as CK; positive control condition), 0.1 μg/ml recombinant thrombopoietin (TPO), 0.1 μg/ml TPO agonist eltrombopag (EP), or 0.1 μg/ml GCSF. Cell number (FIG. 12, top) or percent transgenic cells (FIG. 12, bottom) were quantified using flow cytometry at 7 days.

[2] = test system: T cells expressing the truncated NGFR; assay: Stimulation of negative control T cells expressing truncated NGFR for 7 days; flow cytometry; type: cell-based, human; conditions: 0.1 μg/ml
Procedure: as §1, §3

TPOR = assay: Phosphorylation of STAT3 and STAT5 in TPOR expressing T cells after 24 hours stimulation, flow cytometry; type: cell-based, human; conditions: 0.1 μg/ml
Procedure: (§4) FIG. 14: TPOR stimulation leads to activation of STAT3 and STAT5. Healthy donor T cells expressing TPOR or untransduced control T cells were stimulated for 24 hours with 5 ng/ml IL-2/IL-7/IL-15 (CK), 0.1 μg/ml TPO or 0.1 μg/ml Eltrombopag (EP). Following stimulation cells were fixed and the phosphorylation of STAT3 and STAT5 quantified using flow cytometry.
as §4, with “TPOR” for “FIG. 14: TPOR”, “stimulation led” for “stimulation leads”, “and STAT5 (FIG. 14).” for “and STAT5.”, “μg/ml TPO,” for “μg/ml TPO”

[3] = target: GCF receptor with a deletion at aa 715 (GCSFRd715) (UniProt Q99062); assay: cell-based or functional assay
Chain of UniProt Q99062 (Q99062 25-738 limits assumed, stated change not applied): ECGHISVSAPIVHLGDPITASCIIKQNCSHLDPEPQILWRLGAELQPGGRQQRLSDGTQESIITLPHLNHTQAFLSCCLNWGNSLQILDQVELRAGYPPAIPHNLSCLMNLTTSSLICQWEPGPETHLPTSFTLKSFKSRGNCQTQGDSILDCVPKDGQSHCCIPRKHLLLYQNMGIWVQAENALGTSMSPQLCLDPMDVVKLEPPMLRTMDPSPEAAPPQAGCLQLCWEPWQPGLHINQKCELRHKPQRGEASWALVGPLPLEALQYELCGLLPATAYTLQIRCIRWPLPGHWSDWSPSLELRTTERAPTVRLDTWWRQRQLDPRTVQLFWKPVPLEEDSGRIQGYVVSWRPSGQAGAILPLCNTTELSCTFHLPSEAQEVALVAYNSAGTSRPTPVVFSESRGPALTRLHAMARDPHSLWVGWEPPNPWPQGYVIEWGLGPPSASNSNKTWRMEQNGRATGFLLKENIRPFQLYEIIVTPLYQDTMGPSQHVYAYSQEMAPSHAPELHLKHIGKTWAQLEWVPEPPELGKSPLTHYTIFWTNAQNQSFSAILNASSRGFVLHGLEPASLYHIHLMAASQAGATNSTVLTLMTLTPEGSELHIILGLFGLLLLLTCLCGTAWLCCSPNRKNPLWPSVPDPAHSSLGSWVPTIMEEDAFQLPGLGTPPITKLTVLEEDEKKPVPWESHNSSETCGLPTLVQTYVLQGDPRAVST

G-CSFR = assay: Enrichment of G-CSFR transgenic T cells upon administration of G-CSF; type: cell-based; conditions: primary human T cells expressing G-CSFR
Excerpt: FIG. 7: Strong and specific enrichment of transgenic cells upon administration of G-CSF.
Ectopic expression of a myeloid cytokine receptor (G-CSFR) can be used to modulate CAR-T proliferation, and these T cells could then be inhibited by JAK2 inhibitors (e.g., FDA-approved JAK2 inhibitors such as ruxolitinib and others) (FIG. 6). […] The G-CSF receptor can be further modified to mediate downstream signaling that is normally associated with the T cell activating cytokine IL2 (chimeric G-CSF receptor) (FIG. 8). A pTRPE construct was used for the overexpression of G-CSFR IL2Rβ/IL2RG cytokine receptor (FIG. 9). The HEK IL2 Blue reporter cell line receptor (www.invivogen.com/hek-blue-il2) was used for screening the synthetic cytokine.

[4] = test system: T cells expressing GCSFRd715; assay: Stimulation of T cells expressing GCSFRd715 for 7 days; cell number and percent transgenic cells by flow cytometry; type: cell-based, human; conditions: 0.1 μg/ml
Procedure: as §1, §2
Healthy donor T cells were transduced to express (i) the thrombopoietin receptor (TPOR) or (ii) the GCF receptor with a deletion at aa 715 (GCSFRd715). […] Cell number (FIG. 12, top) or percent transgenic cells (FIG. 12, bottom) were quantified using flow cytometry at 7 days.

Row | Molecule | Response of TPOR cells to stimulation (cell number) (T cells expressing TPOR) | TPOR fraction after addition of agonist (T cells expressing TPOR) | Response of negative control cells (NGFR) to stimulation [2] | further results
1 | recombinant thrombopoietin (TPO) (from UniProt P40225 22-353) (ligand) |  |  |  | percent transgenic cells by flow cytometry after 7 days [1]: 82%
2 | TPO: recombinant thrombopoietin | responded | 82% | did not respond | STAT5 and STAT3 phosphorylation in TPOR expressing T cells (TPOR): leads to STAT5 and STAT3 phosphorylation
3 | GCSF (from UniProt P09919 31-204) (ligand) |  |  |  | percent transgenic cells by flow cytometry after 7 days [3]: 64.9%
4 | CC1=NN(c2ccc(C)c(C)c2)C(=O)/C1=N\Nc1cccc(-c2cccc(C(=O)O)c2)c1O [EP, eltrombopag, reference compound] |  | 55.9% |  | 
5 | GCSF: cognate cytokine of the G-CSF receptor, used at 0.1 μg/ml (protein) TPLGPASSLPQSFLLKCLEQVRKIQGDGAALQEKLCATYKLCHPEELVLLGHSLGIPWAPLSSCPSQALQLAGCLSQLHSGLFLYQGLLQALEGISPELGPTLDTLQLDVADFATTIWQQMEELGMAPALQPTQGAMPAFASAFQRRAGGVLVASHLQSFLEVSYRVLRHLAQP | not |  | did not respond | Enrichment of transgenic cells upon administration of G-CSF (G-CSFR): Strong enrichment; Response of GCSFRd715 cells to stimulation (cell number) [4]: responded; GCSRFd715 transgenic cell fraction after addition of cytokine ([4]; enriched from 15.6% without addition): 64.9%
